Experimental findings from PMC3263374 are described below.

For this assay, the target named is ApoE 130-149 (Homo sapiens) (UniProt P02649). The assay can be described thus: NMR. The following applies: modification not given.

Usually Kd stands for the constant that tells how readily two partners part at equilibrium. Low readings indicate a tighter complex, high ones a looser complex.

ApoE 130-149 (Homo sapiens), sequence (P02649 130-149): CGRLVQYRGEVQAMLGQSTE

Substance LDLR LA4 (in LA45), P01130 displayed a Kd of 405 µM.
To LDLR LA5 (in LA45), P01130 belongs 730 µM.
